Assays:
[1] = molecular target: T1, soluble form of Neutrokine-alpha (amino acids 134 to 285 of SEQ ID NO:2) (human, UniProt Q9Y275 134-285); experiment: capture of Neutrokine-alpha from solution
T1 construct: also called rNeutrokine-alpha; BLyS

[2] = molecular target: T2, peptide comprising amino acid residues Val-227 to Asn-242 of SEQ ID NO:2 (human); experiment: epitope mapping with peptide
T2 peptide: VTLFRCIQNMPETLPN

[3] = molecular target: T3, membrane-bound form of Neutrokine-alpha (human, UniProt Q9Y275 1-285); experiment: binding to THP-1 cells
T3 construct: also called Neutrokine-alpha on the surface of THP-1 cells; cell surface Neutrokine-alpha
T3 sequence (Q9Y275 whole entry): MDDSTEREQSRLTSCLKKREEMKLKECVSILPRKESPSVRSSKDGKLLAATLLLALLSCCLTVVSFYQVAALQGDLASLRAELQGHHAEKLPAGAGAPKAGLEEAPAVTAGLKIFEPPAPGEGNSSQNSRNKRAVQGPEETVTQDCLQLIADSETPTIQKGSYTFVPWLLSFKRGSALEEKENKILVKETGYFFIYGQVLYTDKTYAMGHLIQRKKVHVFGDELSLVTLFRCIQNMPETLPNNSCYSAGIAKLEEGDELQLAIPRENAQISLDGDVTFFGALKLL

Measured: binding result

T1 sequence (Q9Y275 134-285): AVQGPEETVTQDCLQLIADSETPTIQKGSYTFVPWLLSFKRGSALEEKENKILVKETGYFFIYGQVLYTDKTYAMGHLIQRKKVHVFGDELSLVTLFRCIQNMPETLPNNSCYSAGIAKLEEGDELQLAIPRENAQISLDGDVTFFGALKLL

B1: murine monoclonal antibody 15C10 (antibody, V domains shown)
VH: QVQLQQSGAELARPGASVKMSCRASGYTFTTYTMHWVKQRPGQGLEWIGYIIPRNTYTTFNQKFKNKATLTADKSSNTAYMQLSSLTSEDSAVYYCARHYGGGYWFFDVWGAGTTVTVSS
VL: ELVMTQTPASLAVSLGQRATISCRGSESVDSYGNSFMHWYQQKPGQPPKLLIYRASNLESGIPARFSGSGSRTDFTLTIYPVEADDVATYYCQQSNDDPMYTFGGGTKLEIKR
notes: A chimeric form with human IgG1 and kappa constant regions also exists (PTA-3794); also called hybridoma ATCC PTA-1158
binds: [1] | [2] | [3]
